Test results from article PMC7319358.

Molecular target: Cy5UbPRG fluorescent activity-based probe (UniProt P0CG48)

## recombinant DUB2 (enzyme)
  percent of DUB2 reacted with the probe: 85%
